In this experiment the target is polymerized rabbit skeletal muscle actin (F-actin) (rabbit) (UniProt P68135). Description: co-sedimentation; proteins incubated with polymerized rabbit skeletal actin (40 µl of a 1-mg/ml stock; 50 mM KCl, 2 mM MgCl2, 1 mM ATP); WD0830 at 40 ng/ml final; centrifuged at 14,000 x g 1 h 24°C, then 150,000 x g 1.5 h 24°C; supernatants and pellets on silver-stained SDS-PAGE, densitometry with ImageJ.

In turn, “Wolbachia pipientis wMel protein WD0830 (Wolbachia actin-localizing effector 1) (natural protein)” yielded a percent of the protein in the pellet with actin of 24%.
